Target: HHV-6B U14 N-terminal domain (U14-NTD), residues 2-458 (human herpesvirus 6B (HHV-6B) strain HST)
Assay: crystal structure

HHV-6B U14 N-terminal domain (U14-NTD), residues 2-458 (domain or fragment)
stoichiometry N: 2

Source: PMC4859480
